Publication PMC4893161, “The Dynamic Localization of Cytoplasmic Dynein in Neurons Is Driven by Kinesin-1” (Neuron, 2016)

What was measured:
Assay type in all cases: binding
KIF5A, KIF5B, KIF5C = experiment: Co-immunoprecipitation of DIC1a with myc-tagged KIF5 isoforms in COS cells; details: IP anti-myc, Figure 4A
KIF5C stalk (561–774) = experiment: Co-immunoprecipitation of DIC1a with KIF5C head, stalk and tail constructs in COS cells; details: IP anti-GFP, Figures 4B and 4C
KLC2 = experiment: Co-immunoprecipitation of KLC2 versus KLC1 with mCherry-DIC1a in COS cells; details: COS cell lysates, IP anti-mCherry, band intensity relative to KLC1, n = 4 experiments

B1: DIC1a: neuron-specific dynein intermediate chain isoform, expressed in COS cells (protein)
chain: MSDKSDLKAELERKKQRLAQIREEKKRKEEERKKKEADMQQKKEPVPDDSDLDRKRRETEALLQSIGISPEPPLVQPLHFLTWDTCYFHYLVPTPMSPSSKSVSTPSEAGSQDDLGPLTRTLQWDTDPSVLQLQSDSELGRRLNKLGVSKVTQVDFLPREVVSYSKETQTPLATHQSEEDEEDEEMVEPKVGHDSELENQDKKQETKEAPPRELTEEEKQQILHSEEFLIFFDRTIRVIERALAEDSDIFFDYSGRELEEKDGDVQAGANLSFNRQFYDEHWSKHRVVTCMDWSLQYPELMVASYSNNEDAPHEPDGVALVWNMKFKKTTPEYVFHCQSSVMSVCFARFHPNLVVGGTYSGQIVLWDNRSHRRTPVQRTPLSAAAHTHPVYCVNVVGTQNAHNLITVSTDGKMCSWSLDMLSTPQESMELVYNKSKPVAVTGMAFPTGDVNNFVVGSEEGTVYTACRHGSKAGIGEVFEGHQGPVTGINCHMAVGPIDFSHLFVTSSFDWTVKLWTTKHNKPLYSFEDNADYVYDVMWSPVHPALFACVDGMGRLDLWNLNSDTEVPTASVAIEGAYALNRVRWAQGGKEVAVGDSEGRIWIYDVGELAVPHNDEWTRFARTLVEIRANRADSEEEGAVELAA
modifications: left off: mCherry, end not stated, kept
notes: neuron-specific dynein intermediate chain isoform, expressed in COS cells
co-precipitation with all three KIF5 isoforms (KIF5A, KIF5B, KIF5C): co-precipitated
co-precipitation with stalk region of KIF5C (KIF5C stalk (561–774)): co-precipitated
KLC2 relative to KLC1 co-immunoprecipitated with DIC1a (KLC2): 5 fold
